Measurements taken from patent publication US20070026059A1, “Ligands for orphan nuclear hormone receptor steroidogenic factor-1 (SF-1)” (priority 2005, published 2007).
Ends that are not written are not given here. * marks the point of attachment. Biotin = O=C1N[C@H]2[C@H](CS[C@H]2CCCCC(=O)*)N1

Columns and labels:
[1] = tested on: mutated SF-1 LBD (pocket residue to tryptophan mutants); test: AlphaScreen assay: effect of 12PE on restoring co-activator binding of mutated SF-1 receptors; format: biochemical, mouse; conditions: 12PE 1.25 μM, FIG. 6E
Method: E. Effects of 12PE (1.25 μM) on restoring TIF2 binding activity of mutated SF-1 receptors.
All phospholipids were purchased from Sigma and stored according to the manufacturer's instructions. The binding of the various peptide motifs to SF-1 was determined by AlphaScreen™ assays from Perkins-Elmer as described recently for other nuclear receptors (Xu et al., 2002). Wild type SF-1 and the mutated LBDs were purified as 6×His tag fusion proteins for the assays. The experiments were conducted with approximately 20-30 nM receptor LBD and 20 nM of biotinylated TIF2 peptide or other co-activator peptides in the presence of 5 μg/ml donor and acceptor beads in a buffer containing 50 mM MOPS, 50 mM NaF, 0.05 mM CHAPS, and 0.1 mg/ml bovine serum albumin, all adjusted to pH 7.4. An AlphaScreen kit for detection of hexa-His was used in this experiment and the binding signals for the TIF2/SF-1 interaction were detected in the absence or the presence of exogenous phospholipids. […]
The SF-1 pocket comprises 51 residues that form intimate contacts with the bound phospholipid ligand. […] All mutated receptors expressed well and were readily purified for AlphaScreen assays that measure SF-1 recruitment of three different co-activator motifs that show interactions with SF-1 in FIG. 1A.

[2] = target: T1, SF-1 LBD / TIF2 co-activator motif interaction (Mus musculus, UniProt P33242); test: AlphaScreen assay of SF-1 binding to TIF2 co-activator LxxLL motif in absence or presence of phospholipids; format: biochemical; conditions: for EC50: in the presence of 10% ethanol, FIG. 5E, read-out: potency (EC50) for recovering the SF-1/TIF2 binding activity
T1 construct: The mouse SF1 LBD (residues 221-462) was expressed as a 6×His fusion protein; made in house; host or cells: E. coli BL21 (DE3), pET24a
Method: The mouse SF1 LBD (residues 221-462) was expressed as a 6×His fusion protein from the expression vector pET24a (Novagen). BL21 (DE3) cells transformed with this expression plasmid were grown in LB broth at 16° C. to an OD600 of ˜1.0 and induced with 0.1 mM isopropylthio-β-D-galactoside (IPTG) for 16 hours. Cells were harvested, resuspended in 400 ml extract buffer (20 mM Tris pH8.0, 150 mM NaCl, 10% glycerol) per 6 l. of cells, and passed 3 times through a French Press with pressure set at 1000 pa. The lysate was centrifuged at 20,000 rpm for 30 minutes and the supernatant was loaded onto a 50 ml Ni-NTA column (Qiagen). The column was washed with extract buffer and the protein eluted with 300 ml gradient to buffer B (10 mM Tris, PH8.0, 150 mM NaCl, 10% glycerol and 500 mM imidazole). The protein was further purified with a Q-Sepharose column (Amersham Biosciences). A typical yield of the purified protein was about 100 mg from each liter of cells. To prepare the protein-cofactor complex, we added a 2-fold excess of the SHP peptide ([…]; SEQ ID NO:1) to the purified protein, followed by filter concentration to 15 mg/ml.
(§1) All phospholipids were purchased from Sigma and stored according to the manufacturer's instructions. The binding of the various peptide motifs to SF-1 was determined by AlphaScreen™ assays from Perkins-Elmer as described recently for other nuclear receptors (Xu et al., 2002). Wild type SF-1 and the mutated LBDs were purified as 6×His tag fusion proteins for the assays. The experiments were conducted with approximately 20-30 nM receptor LBD and 20 nM of biotinylated TIF2 peptide or other co-activator peptides in the presence of 5 μg/ml donor and acceptor beads in a buffer containing 50 mM MOPS, 50 mM NaF, 0.05 mM CHAPS, and 0.1 mg/ml bovine serum albumin, all adjusted to pH 7.4. An AlphaScreen kit for detection of hexa-His was used in this experiment and the binding signals for the TIF2/SF-1 interaction were detected in the absence or the presence of exogenous phospholipids. EC50/IC50 values for the effects of phospholipids on TIF2 binding to SF-1 were determined from a nonlinear least square fit of the data based on an average of three repeated experiments with standard errors typically less than 10% of measurements.

[3] = target: T2, SF-1 LBD (Mus musculus, UniProt P33242); test: AlphaScreen binding of LxxLL / co-repressor motif peptides to purified SF-1 LBD; conditions: FIG. 1A
T2 construct: The mouse SF1 LBD (residues 221-462) was expressed as a 6×His fusion protein; made in house; host or cells: E. coli BL21 (DE3), pET24a
Method: A. Binding of various LxxLL motifs to the purified SF-1 LBD as measured by AlphaScreen™ assays. The background reading of either SF-1 or the peptides alone is less than 200. The peptide sequences are listed in experimental procedures. The results are the average of three experiments (error bars=standard deviation).
as §1
The peptides with an N-terminal biotinylation are listed below.

T2 sequence (P33242 221-462): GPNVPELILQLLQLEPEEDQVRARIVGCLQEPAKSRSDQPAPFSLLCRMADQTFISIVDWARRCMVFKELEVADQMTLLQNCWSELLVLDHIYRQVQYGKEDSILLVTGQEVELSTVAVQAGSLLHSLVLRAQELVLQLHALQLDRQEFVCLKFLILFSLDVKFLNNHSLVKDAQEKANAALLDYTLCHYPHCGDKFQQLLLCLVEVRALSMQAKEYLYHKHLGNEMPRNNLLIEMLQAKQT
T1 sequence (P33242 221-462): as above

## CCCCCCCCCCCC(=O)OC[C@H](COP(=O)(O)OCCN)OC(=O)CCCCCCCCCCC [12PE, 1,2-Didodecanoyl-sn-glycero-3-phosphoethanolamine]
[1]
  restoration of co-activator binding of SF-1 mutants A270W, L266W and L348W: completely restored
  restoration of co-activator binding of SF-1 mutants L345W, V349W and A434W: cannot be restored
[2]
  EC50: 66 nM

## CCCCCCCCCCCCCC(=O)OC[C@H](COP(=O)(O)OCCN)OC(=O)CCCCCCCCCCCCC [14PE, 1,2-dimyristoyl-sn-glycero-3-phosphoethanolamine]
[2]
  EC50: 64 nM

## CCCCCCCCCCCCCCCC(=O)OC[C@H](COP(=O)([O-])OCC[N+](C)(C)C)OC(=O)CCCCCCCCCCCCCCC [16PC, 1,2-dihexadecanoyl-sn-glycero-3-phosphocholine]
[2]
  EC50: 80 to 120 nM

## CCCCC/C=C\C/C=C\CCCCCCCC(=O)OC[C@H](COP(=O)([O-])OCC[N+](C)(C)C)OC(=O)CCCCCCC/C=C\C/C=C\CCCCC [18PCD, 1,2-dilinoleonyl-sn-glycerol-3-phosphocholine]
[2]; absence of ethanol, FIG. 5D
  effect on high basal SF-1/TIF2 interaction: disrupted the high basal interactions of SF-1 with TIF2 in a dose dependent manner
[2]; absence of ethanol, high basal interaction, FIG. 5D, read-out: IC50 for inhibiting the SF-1/TIF2 interactions
  IC50: 100 to 300 nM

## CCO [ethanol]
[2]; 10% ethanol added to the binding buffer
  loss of the SF-1/TIF2 binding activity: > 90%

## CBP: N-terminally biotinylated peptide SGNLVPDAASKHKQLSELLRGGSG (SEQ ID NO:8) (Biotin-SGNLVPDAASKHKQLSELLRGGSG; listed as Mus musculus)
[3]
  interaction of peptide motif with purified SF-1: not

## N-COR: N-terminally biotinylated co-repressor motif peptide GHSFADPASNLGLEDIIRKALMGSF (SEQ ID NO:9)
[3]
  interaction of peptide motif with purified SF-1: did not interact

## SMRT: N-terminally biotinylated co-repressor motif peptide QAVQEHASASTNMGLEAIIRKALMGKY (SEQ ID NO:10) (Biotin-QAVQEHASASTNMGLEAIIRKALMGKY; listed as Mus musculus)
[3]
  interaction of peptide motif with purified SF-1: did not interact

## SRC-1 fourth LxxLL motif: N-terminally biotinylated peptide QKPTSGPQTPQAQQKSLLQQLLTE (SEQ ID NO:4) (Biotin-QKPTSGPQTPQAQQKSLLQQLLTE; listed as Mus musculus)
[3]
  interaction of peptide motif with purified SF-1: able to interact

## SRC-1 second LxxLL motif: N-terminally biotinylated peptide SPSSHSSLTERHKILHRLLQEGSP (SEQ ID NO:3) (Biotin-SPSSHSSLTERHKILHRLLQEGSP; listed as Mus musculus)
[3]
  interaction of peptide motif with purified SF-1: able to interact

## TIF2 peptide: N-terminally biotinylated peptide QEPVSPKKKENALLRYLLDKDDTKD (SEQ ID NO:2), third LxxLL motif of co-activator TIF2
[3]; background of SF-1 or peptide alone less than 200
  AlphaScreen signal on incubation of SF-1 with peptide: ~45,000 photo counts

## TRAP220: N-terminally biotinylated peptide GHGEDFSKVSQNPILTSLLQITGN (SEQ ID NO:7) (Biotin-GHGEDFSKVSQNPILTSLLQITGN; listed as Mus musculus)
[3]
  interaction of peptide motif with purified SF-1: not

## first LxxLL motif of SHP: N-terminally biotinylated peptide PCQGSASHPTILYTLLSPGP (SEQ ID NO:5) (Biotin-PCQGSASHPTILYTLLSPGP; listed as Mus musculus)
[3]
  interaction of peptide motif with purified SF-1: able to interact

## second SHP LxxLL motif: N-terminally biotinylated peptide VABAPVPSILKKILLEEPNS (SEQ ID NO:6)
[3]
  interaction of peptide motif with purified SF-1: not
